Experimental findings from the domain aggregation screens of Martell et al. (2025) are described below.

This series is described as follows: soluble fraction after stress (log2 fold change); higher = more stays soluble; pooled small domains, quantitative proteomics. The following applies: stress: 50 degC. An outline of the steps: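 Custom libraries of small protein domains were pooled and measured in a high-throughput format, with quantitative proteomics as the read-out. Each library was stressed at 50°C. The value is the log2 fold change in the amount of each protein that stays soluble after stress, used as a measure of aggregation propensity; higher values mean more of the protein stays soluble.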

Turning to “HMTTARERVYKTLQQWIVNGTLLPEERLNDVELARYFSVSRTPVREALQMLAEQKLVKMVPSSGTFVA”, the “soluble fraction (log2)” value was -0.769. The value for “HMDEEVLVVQEGGERLDVFVAANAEGITRSFVQNLIKKGDVTVDGAPRKANYRLRSGQVVRFSLPEP” was -0.328; that for “HMENSPLTHREAEVMRLMSEGKSNRAISEHLVISEKTVKNHVSSILQKMSVDDRTQAVLQAIKNGWVD” was 0.23; that for “HMSLSPAATRSRGYPSVLLTMKAPERLVSAAGPDRRAYLVGTDPLVIELPGVKGLYKVDPDQIVFE” was 0.0566.

As for “HMALSSQQIKDMQSWYGTKADGIWGSKSTTAAGGRDAGAAYSLYSSNKGRYSSYTDYMSYGGG”, the “soluble fraction (log2)” value amounted to 0.072. Take “HMQQVLGDVNEDDKVDFLDAIVVLRHDAEIIQLTDNQMKAAEVNKDGKVDFLDAIMILRYDAEIIGS”: the “soluble fraction (log2)” value was -0.0952.

Regarding “HMKLQIQNIEIDKKISELAEGVSAEKLPFLAKLIDRSKLLNDKGEINEDSVKAAIEEVVKAFPDFK”, the “soluble fraction (log2)” value worked out at 0.081. The value for “HMQASIPQSQKDALAKELQALPPHGRNRVLSTFRQQFNISSEKISEFITTPEHLSFIRSKIAEVESDS” was 0.0722. Then “HMDVIGLEAAKSAAVKDAGISSPTFTKATLDRDDGRSLYEIEFISGSTKYEYDIDALTGSVLSKKTRALS”, with -0.112.

With “HMSYPFSEDALKEKIREYLKHNRSINRKVLEAEFHIRKQTALNWLKKLEKSGFLIKEGSRNAPVYFLAE”, the “soluble fraction (log2)” value was -0.832. Then “HMYSLSELERIKNFLTGYMSDYSIMMLDANEITNQVDISLKDYSDDNIESIKAAVLSHGGKTDYLNFIDDS”, with -0.589; and “HMDIVENSMPNVVGLELNRAKELMTQLGFTNVRYEPTESSRPENEVVYQSVDKDETLDVSSEIIIQYSSGV”, with -0.0131; and “HMPLPLYVQIKESLRGQIFDGTYGEHERLPSENDLMSSFGVSRITVRQALSDLEKEELIFKVPGKGAFVSR”, with -1.32.

Consider “HMQRQGTVATQQTPLNIRSQPSLSAQVIGQAPKGATVAILGESGDWYQIRYQNITGYSSKQYI”, for which the “soluble fraction (log2)” value came out at 0.145. As to “HMSDESALIAAIEKAIAAQPETAEKVRNGHLPAAGALIGSVMKETKGQADAARVRELLLGLLGQ”, the “soluble fraction (log2)” value was 0.139. The value for “HMNSSTYIVTFKVDGEEDIVETYQWGDRIIVPEVEAKDDYVFIGWDAQIPEFMPERNLEFTAI” was -1.14; that for “HMRPPLEWGTHGEITTRTVASGYVRASARVRLWDGELQRMTATASTASDARASLQHRIAERLRFSEL” was -1.46; that for “HMNINTEMEKVSYSLGVNIASSLKQQGWELDAKSLSDAFVDVFNGNKLLIDEKEASSILQNYQQKIANK” was -0.144. Then “HMDTYDSIDSILEERHLSRRKLAQAIGLPPSTFQSMMSRKSGMTLEVLMKIVSYLQVSPDAFW”, with -2.12; and “HMKEIYIDRGKEALEKELRKRKIPFQEFLSKENTNLLFDTLKIPSHDLEELYLEIGNGKHAASTVVNTVY”, with 0.136; and “HMPALPGNELLRNLMLEHGLKQVDLAEIGSQGVVSEILSGKRRINRRHADLLARRFSLPAELFSR”, with -0.133. Then “HMSQQEAQLNSLVKIYESMKPKDAARIFDTLDMDVLLDVVMRMKEARSAAVLAEMTPDRAKEVTLQLAD”, with -0.61; and “HMLTTMSSQWKPSLDAIEILEKSGIAYSFIEDAIPEFVLYWRERGISHGAWNTKFVEHIRKQWAKFEAS”, with -1.35. Turning to “HMVAGHLQEKNGYFYIVLNYTNHEGKRKSKWITTGLTVKGNKKRAQDLLQEARKTFVPDIPT”, the “soluble fraction (log2)” value was -1.19. The value for “HMDLDIRDDIYRANIPNDYKLQQMQNNIDYDKVLTGYYNNRPEANVIANRTLQLANDVYNRD” was -0.0187; that for “HMNIEANLEDILRRAMPSAAKLILENSLNINKIIGTGKEGRITKGDVLLYLKDKNLILENILN” was -0.173. Then “HMRMSQLSRLISILTLLKSKRLLTATELAEKYDVSIRTVYRDIRKLEEAGIPVYTIEGRGYSLMDNYT”, with -1.6. The value for “HMYSSIIGIAFTRAENKPAAPTGGSYSNPHPVDGNWKAAPYDGDGNLWYSIRHFNENVDIQDREWSDPTLG” was -0.24. For “HMGSEGVKVEDTIGMSEAEATATLGKSGFVVNKTESHDPYIKAGNVITQSPAAGSKAPKGTTVTLTISLGP”, the “soluble fraction (log2)” value amounted to 0.131. “HMNDLIKMPYLVGQLYDDVASNQEYADFQFKITEGNDPDKQPGEIMKQDPAADIMVKKNAEVELLVNG”: the “soluble fraction (log2)” value stood at 0.247. The value for “HMFEATGKITGTEVSFRRKPTTDSERILFFDINTEFRVIGINNGWYKGVYQGKTGYVRSDFVEIVGG” was -0.162; that for “HMQLGEEAGDELVAIVRSVINDNDKALADYLAGKSSALKFLLGQVMRQTKGRADHALVQSLLEAELEAL” was -0.169; that for “HMDKSLDFASIKSVEIATGRKFGWHALKKWSKSNSSEIKTIPDPNFGEVKTYHKDAWLAVYNINLSPILD” was -0.404. Then “HMLEQEQFESKLLKAINNINETQRIAFLMHRIDGKKYAEIASELNISVKAVEKRIHLALIELKKEIENF”, with -0.871; and “HMQDENAVTYLLEIKNADANDIASVLKTLKSPDADVVVYKTLNMIIFTGQGSEINGLVKVARQLDRK”, with -0.417; and “HMSSRSLSYSDFIERVDAGQVSKVVMDGERLVVVGQDGTSYVTIKPPGDQVTENLSRELISKGVEVEAEPQ”, with 0.0107. Then “HMAPQVKIPNLVDVSQRQAEAILNSYGLKVGHLIYKPDLAKDAVLGFMFNGRSLKAGDELAKGSSIDLILG”, with -0.097; and “HMSVNAPMPGKIVNVLVSEGQKVNSGDVLLILEAMKMQNEIAATQAGTVKAINVAAGQSVKVGDALVN”, with 0.108; and “HMYIEKTAYINDTAVNVRKSATTDSDVIKVLALNTEITIIGEENDWYKVKSGNDIGYIAKRLVSDQKKE”, with 0.0858.

For “HMFDMLGDQIKKYRKEKKMSQEELAIPLNVVRQTVSKWENNLSVPDAELLIRLAEVLEISVAELLGT”, the “soluble fraction (log2)” value is -0.108. The value for “HMSKININTITESELKELPISTVKQKAIQDYLIDRGFISNIYDLLDIKEITSDDVSLLKKVVNVKLPY” was -0.218; that for “HMRAAEPTTDAQRDRRRRIVLTAMTMLQERGYDEIQMRDVAQQAGVALGTLYRYFPSKEQLFAHVLVE” was -0.599. Then “HMLSDAAAMESIAYEAIRQMEPDTYYIIGAGTTTRGIMEVLGLKNTLIGVDLIRNKELVANDLGGKELLSY”, with 0.0353.

For the sequence “HMQRYFLEEAYQPSEKFELSAEAFHHIVHVMRMKPKDRVYLAFSDQQVIIAEITEITEEKVYLTEIEKEE”, the “soluble fraction (log2)” value was -0.0978. The value for “HMGERVDGVVKFFNGQKGFGFIQREDGGPDAFVHISAVERAGMAGLDEGQRVSFELELDRRGKQAAINLTP” was 0.00122. Then “HMRTNNEITSYKLKSGKKRWKFQTYLGLDDKGQKVSVTRQGFRTYNEAISEYNKLRAQGTQGYQ”, with -0.355; and “HMQKTQVVEVAGKSYQLTKMDARTGSYVAFKVAGVLAPSGGKTAEMAAALMGMPRKDFDELQSLLLRTV”, with 0.141. Then “HMGNEMQVPNVAGKTVDEAIEIFNNMGLKVAAENKYAQSDDVKEGDVVKTDPSSGRNVKKGSEITLYISQG”, with 0.0976; and “HMSHSDMEEWTDAVRSRRKKLGLTQVQIARRLGVTSHHFSQIESGRTIPSASLQIEIDRLLKNWND”, with -0.963. For the sequence “HMEAGTEYVERAADYIRSHFQEDLTVSKLALYVGLNRSYLTTVFQNTLHVSPQQFLMRFRMERAAQLLD”, the “soluble fraction (log2)” value worked out at 0.0719. The value for “HMDFTHFTLKQDGKFAGSSNLLHQAVIAAARLAAETGKPVTVMAHVRGGGTRKAVFNPDGTNDKIWN” was -0.61; that for “HMNQTPQISYSQFIADVRSGQIKDVNIDSDNRTIVGHKFSGEEFTTFSPGDNKLVDELLNYNVEIKTSP” was 0.411; that for “HMNMPHEIDANFISSLGRLIDNHGKNYGDFQIFREMFLDYFPRFDELSSNNKEKINRRLYKFFETLFG” was -1.71. Regarding “HMTTVSINTTGIITASTIRASSALYPPLYTTVQRDAGTFSAGAIIFNSTTSKLEFYDGTTWQSLPG”, the “soluble fraction (log2)” value was -0.106. The value for “HMKGIVFTEFLDLVEERFGLEMVDAIISQSKLESKGVYTSIGTYSFSELLQLLQNLKIQTGISIDNLLLI” was -0.88.

Regarding “HMIAITVGSKVRVKAGATFSDGTKPFTEVYNTVYDVQLLSRNGKEARIGIGEQWTGWMYISDLYPADQ”, the “soluble fraction (log2)” value was -0.359. The value for “HMKDMWNRIRRARLSAGLSQAALAKETGVRRSAVTQWEKEGGTSPSVANLARIAVVTQVHFEWLATGRGPG” was -2.67; that for “HMENMRLILASNLRRIREERRLSLNKVSELTGVSKSMLGQIERGESNPTLQTVWKIANGLRVSLTDLTEVP” was -0.0326; that for “HMDKEKLQEKLLQIFEAEPQKKFQVQDLVKVLDMEGAGQFKFVVQALADLEHNKQIKLSEDDTFSLIVKE” was 0.0616. Then “HMTHAISKTYAVTGEQLKNGFTLTHTFANGSTRRVDVYPGSRSGKVIAVRNTTDDTTEWIRIVEG”, with 0.0444; and “HMAPELSGEKLWDAQDVAMFLRVKPTTVWSYVSRDGFPAPVSQAGRAGMWSEPLVVQWYLSRPG”, with -0.223. The value for “HMEDNLMIVVQVNGKKRSEIKVSIDASEDQIKQTALAEPNVQKFVEGHTIRKMILVPSKLLNIVV” was -0.0375; that for “HMVFRFELQPSSATPLYRQIVEQVTRAVAAGVLRDGEELPSVRAVAQEYVINPMTVSKAYSLLEAQSI” was -0.349.

As to “HMGAATQADIARVQELLNRLGYDAGSPDGLMGPRTRDAILEYQLTEGLETTGTVTRETLASLEARL”, the “soluble fraction (log2)” value was found to be 0.0823.

As for “HMDKNNLLIIYRTNSEGTPYAFSVTPSAKSLDALHKDAKEMLPFLEKSMNNFFSIQIWERAEYLKY”, the “soluble fraction (log2)” value was -0.643. The value for “HMTSDYEPSEKDEKAVIGIAFLRNTDVYDVDIDKAEAIKALKANNDIYQKFVKFFPFVKLPSLYDDFQ” was -0.00582; that for “HMAVKNAQIDVQQFFYSKSGEVDFGRKIKAIQSHFTPERLQSFTAAVPPSQWVSQLQVMWDSL” was -1.39; that for “HMENFYGYEIINPEAKKFFITMGVNRYALEQWIKNKSEYGLIIVKSLYPFDPRLKLFLEKNRERIQNLIF” was -0.566.
